Target: T1, purified extracellular domain of the erbB-2 protein (human, UniProt P04626 23-652)
T1 construct: extracellular domain; also called erbB-2^ecd; soluble erbB-2 receptor
Assay: flow cytometry
Procedure: Cell surface expression and erbB-2 receptor binding ability of the scFv(FRP5):hinge:ζ protein in transduced C196 CTL and in transduced Jurkat cells are confirmed by flow cytometry.
Single-cell suspensions of 5 ×10^5 viable cells (Jurkat cells, JFYZ.4 cells, C196 cells, CFYZ.1 cells) are stained with the purified extracellular domain of the erbB-2 protein (erbB-2^ecd, expressed in Sf9 insect cells using a baculovirus expression vector; Disis et al., Cancer Res. 54, 16–20 (1994)) for 1 hour followed by the FITC-conjugated anti-erbB-2 monoclonal antibody FSP77 (European patent application EP-A-502 812) for 45 min at 4° C. in 100 µl PBS containing 1% BSA and 0.1% sodium azide. FSP77 also is specific for the extracellular domain of the erbB-2 receptor, but recognizes a different epitope from mAb FRP5 (I. M. Harwerth et al., J. Biol. Chem. 21, 15160–15167 (1992)).

B1: scFv(FRP5):hinge:ζ protein (receptor)
chain: QIQLVQSGPELKKPGETVKISCKASGYPFTNYGMNWVKQAPGQGLKWMGWINTSTGESTFADDFKGRFDFSLETSANTAYLQINNLKSEDMATYFCARWEVYHGYVPYWGQGTTVTVSSGGGGSGGGGSGGGGSDIQLTQSHKFLSTSVGDRVSITCKASQDVYNAVAWYQQKPGQSPKLLIYSASSRYTGVPSRFTGSGSGPDFTFTISSVQAEDLAVYFCQQHFRTPFTFGSGTKLEIKALEISNSVMYFSSVVPVLQKVNSTTTKPVLRTPSPVHPTGTSQPQRPEDCRPRGSVKGTGLDFLEDPKLCYLLDGILFIYGVIITALYLRAKFSRSAETAANLQDPNQLYNELNLGRREEYDVLEKKRARDPEMGGKQQRRRNPQEGVYNALQKDKMAEAYSEIGTKGERRRGKGHDGLYQGLSTATKDTYDALHMQTLAPR
notes: Stood on the surface of transduced murine CTL C196 (clone CFYZ.1) and human Jurkat cells (clone JFYZ.4); On cells it is found as disulfide-linked homodimers and as heterodimers with endogenous ζ; also called scFv(FRP5):hinge:zeta; scFv:hinge:ζ
binding result: binds

Reference: patent publication US6984382 (dated 2006)
